Assay results reported in the supplement of paper PMC10126150.
± gives the standard deviation of the averaged measurements.

system: ATP; experiment: switch fluorescence ratio, 500 uM ATP over buffer (Cy3 cluster intensity, sum of 5 cycles each) (fold (ratio)); higher = stronger signal-on switching upon ATP binding; sequences stand for … in TCGTCGGCAGCGTCAGATGTGTATAAGAGACAGTTTTTTTTTTTTTTTTTTTTTTTTT…TC; conditions: aptamer strand: ATP DNA aptamer (quencher-CACCTGGGGGAGTATTGCGGAGGAAGG + anchor), 100 nM annealed; ATP concentration: 500 uM
How it was run: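 Values give the fluorescence ratio for each switch-domain sequence, averaged from per-cluster ratios of summed target-cycle to summed buffer-cycle Cy3 intensity. The Cy3-labelled switching-strand clusters sat on a modified Illumina MiSeq flow-cell, were annealed to 100 nM quencher-labelled ATP aptamer, and were imaged in selection buffer, then after 15 min with 500 uM ATP at 22 °C. Five cycles ran with NaOH stripping and re-annealing between them, and clusters outside 100-1000 RFU were excluded.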
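Further: ATP exposure 15 min at 22 °C before imaging.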

| Sequence | switch fluorescence ratio |
| --- | --- |
| ACTGAGTGGC | 1.06 ± 0.029 |
| GGTAGATTTT | 0.9792 ± 0.003 |
| GACGGCTGTA | 0.991 ± 0.015 |
| CGTTGGGTTC | 0.969 ± 0.013 |
| TCTGTATCTA | 0.993 ± 0.021 |
| GGGTAAATTG | 1.041 ± 0.0068 |
| TTTTTGTGAC | 0.999 ± 0.027 |
| CGTTAAAGAT | 1.03 ± 0.023 |
| TTTCAAGGGG | 0.996 ± 0.011 |
| GACTGGATTG | 0.996 ± 0.06 |
| CCATACGGGG | 0.998 ± 0.023 |
| TTGGGTAGGA | 1.03 ± 0.04 |
| TTGGTAATGG | 1.04 ± 0.051 |
| TTTTCTATGT | 1 ± 0.019 |
| TGGGGTTGTG | 0.987 ± 0.031 |
| TTATGGGGGG | 1.01 ± 0.042 |
| ATTGTTTTAC | 1.02 ± 0.014 |
| TACAATTTTA | 1.006 ± 0.0041 |
| GAGGCAGTTA | 1.11 ± 0.046 |
| TGCATTTACT | 1.133 ± 0.0035 |
| TTGCCTAAGC | 0.974 ± 0.016 |
| TCGGTAGGGC | 1.025 ± 0.0089 |
| CGGGGTTCTT | 1.02 ± 0.031 |
| TAGGAGGCTA | 0.976 ± 0.035 |
| TGTTGGGGG | 0.994 ± 0.062 |

| Sequence | switch fluorescence ratio |
| --- | --- |
| GAACTCATGA | 0.982 ± 0.012 |
| TGAAACATTT | 0.975 ± 0.036 |
| GTTGCGGTTG | 0.986 ± 0.039 |
| TTCGCGAGGT | 2.67 ± 2.3 |
| TGCTGTTGGC | 0.928 ± 0.025 |
| TTTTTAGACG | 0.981 ± 0.057 |
| TCTTTTTTCC | 1.1 ± 0.1 |
| GGGTACGTCA | 1.03 ± 0.071 |
| CTCGGGGATG | 0.976 ± 0.013 |
| TATAGGCTCA | 0.976 ± 0.033 |
| ATTTTTTACA | 1.082 ± 0.0069 |
| ATTCGTTCGA | 0.9955 ± 0.0033 |
| GATCGGGGGA | 1.02 ± 0.015 |
| AGGATTATTG | 0.991 ± 0.017 |
| CGAATGGCCC | 1 ± 0.012 |
| AGGGAGGTCG | 0.973 ± 0.035 |
| AGAGTTTTTA | 1.01 ± 0.035 |
| CATTTTTTTG | 1 ± 0.017 |
| GCATGGTTAT | 0.993 ± 0.036 |
| GGGCTAGGCT | 0.9684 ± 0.006 |
| CCGAGCTTGA | 1.61 ± 0.085 |
| AGATATTTTT | 0.975 ± 0.023 |
| TGGTCAAATC | 1 ± 0.051 |
| TGGTGGGGCA | 0.977 ± 0.064 |
| GTAAGGAAAT | 1.013 ± 0.0024 |

| Sequence | switch fluorescence ratio |
| --- | --- |
| TGAAAAATTT | 0.988 ± 0.025 |
| GTTTTCTTGG | 0.977 ± 0.013 |
| TTTCAAAAAT | 1.01 ± 0.044 |
| GGTAGGCAGG | 1 ± 0.021 |
| TTTAGGTGGT | 1.11 ± 0.2 |
| GTATAAGGTT | 0.98006 ± 0.00074 |
| ATTCTCGTGG | 0.997 ± 0.036 |
| TGGGTGGACA | 1.02 ± 0.08 |
| AACTATCTTG | 1 ± 0.0027 |
| GTTCGTGTGG | 0.987 ± 0.028 |
| TATCTTACGA | 1.02 ± 0.041 |
| CAGCCGTTTC | 1.03 ± 0.033 |
| TTCTTGGGTA | 0.989 ± 0.011 |
| TCGTACAGGG | 1.03 ± 0.047 |
| TATTTAAGTT | 1.03 ± 0.013 |
| TCGGGGCAGG | 0.988 ± 0.013 |
| GGGATTTGAT | 0.98 ± 0.028 |
| CAGCTTGATA | 0.979 ± 0.018 |
| GGATGATCGT | 0.954 ± 0.029 |
| TAGTTTCGAT | 0.977 ± 0.019 |
| GGCGGGAATT | 0.972 ± 0.031 |
| TTTGTATTAG | 1 ± 0.028 |
| CAAAGAAAAT | 0.9943 ± 0.0062 |
| GGAGTAGGGA | 1.02 ± 0.031 |
| TCATGGTACG | 1.06 ± 0.022 |

| Sequence | switch fluorescence ratio |
| --- | --- |
| TATGGTGGGG | 0.986 ± 0.034 |
| CATCGTTGGT | 0.999 ± 0.0029 |
| GGGGTGTACC | 0.985 ± 0.033 |
| TTAGATTGCA | 1.001 ± 0.0083 |
| ATTCTGCGGA | 1.01 ± 0.019 |
| ACGTTATGTG | 1.0491 ± 0.00035 |
| GGCCCCATGC | 1.24 ± 0.034 |
| TCGATGTGTT | 0.9592 ± 0.0086 |
| GGGGGTCTTT | 0.99 ± 0.023 |
| AAACTGACGG | 1.37 ± 0.016 |
| GTACCCCAGG | 3.5 ± 3.3 |
| GTGCTAAGAG | 0.969 ± 0.043 |
| AATCGGGAGG | 0.963 ± 0.062 |
| CTTATATTTT | 0.997 ± 0.066 |
| ATGCGGTAGA | 1.02 ± 0.042 |
| TGGGCGAGAA | 0.9685 ± 0.0052 |
| GGGGAGGTAG | 0.985 ± 0.014 |
| TTTGTGAAAG | 1.008 ± 0.006 |
| TCGTAGTTGC | 1.24 ± 0.027 |
| TGTTTTGATG | 1.04 ± 0.078 |
| TTTTTTTTTC | 1.04 ± 0.11 |
| ATCTGATGGC | 0.957 ± 0.039 |
| CATTACAGCC | 1.09 ± 0.028 |
| TGGATAGGCA | 0.986 ± 0.012 |
| GTTGGTGGGT | 0.98 ± 0.032 |
